Positions count from the first letter of the chain named. Names may count otherwise.
Biological target: the molecule itself
Assay: native gel or EMSA

B1: Q115R Sin (enzyme, Staphylococcus aureus (plasmid pI9789))
chain: MIIGYARVSSLDQNLERQLENLKTFGAEKIFTEKQSGKSIENRPILQKALNFVRMGDRFIVESIDRLGRNYNEVIHTVNYLKDKEVQLMITSLPMMNEVIGNPLLDKFMKDLIIRILAMVSEQERNESKRRQAQGIQVAKEKGVYKGRPLLYSPNAKDPQKRVIYHRVVEMLEEGQAISKIAKEVNITRQTVYRIKHDNGLS
B1: binds.

B2: T77I/I100T/Q115R Sin (enzyme, Staphylococcus aureus (plasmid pI9789))
chain: B1 chain with T77I, I100T
B2: binds.

Reference: paper PMC2764113 (Molecular Microbiology, 2009)
